In the NTF2 design screens of Basanta et al. (2020) one finds protease stability score data, which are given here for 47 sequences.

A short description of the series: protease stability score; higher = more stable; yeast display proteolysis, trypsin and chymotrypsin.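 Further: relative to predicted unfolded state with 0 unfolded-like and 1 meaning tenfold more protease.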
Sequence “SEDEETVHEWFEVLRRDWATGNEENLMKLLDPHARLIIDGRELHGREHIIEFLRRHREHLGVTNIHVEFHIDNRKIFNGKVEVKGTLTIRINGKEEEREVILIIEKIDGRWYIKNLEIR” registered a protease stability score of 0.552. With “SEDEEVAERFLRLLIESLMTGDEDSFKSLLDPNDRLHIGEKHNHGRNLIVELLTRFGIELEHIELKSVEVINGRIHVNTHIRFIQGDKHIETEMRLNVDKIDGRWRLRSMHID” the figure was 1.98; with “SEDEEVIKKHLKEFIDVLRTGNEEMSSYLADPNARVVDENEFSHGREDMTRIVSQARLHHIHVHDFELQGDKLLLDVHVDGVINGRRRRDKFHFVWLKYNGRWFLHSVHIR”, 0.652. In the case of “SEDEEVLEWAIKIVILALKTGDEDLFRKLADPTMRTEINGVILHGWKEVLRSLKELRVHHVRIERVEVINGRVHVDSREDVEFNGVRYETITHLVIEKVDGRWLMHSLKVE” it was 2.06; in that of “SEDEEVMKRAHELSARVMKTGDEETFRELADPDVRRNVNGVVRHGMENVIHLLRILFDEIRPRHFELTHMEVQGDKVRMEIRNDVRIGDKEVQLRVILIASKVNGRWHLQEVHVE”, -0.496; in that of “SEDEEVVKEWIKVVLHSMVTGDEDDVRRLFDPHTRIEINGVLFIGRKWAETLARRVDHHHIETIEYHRSHVVDGVATVDGTFRGREEVDGRKIEHHFRIEFVIMKIDGRWVTQQMRIK”, 1.56.

Sequence “SEDEEWAKRMADNILEFLNTGDFREFSKELDPNTILRIDGREIHGMELVETHLEHARMRVDDWEIRSVRSVNGKLDVDMRLDGKLRFDGKEHYRKTESILIILKVDGKWRIHNIHVR” gave a protease stability score of 1.07. “SEDEEWLHMAFELFAEAMRTGDEETLREYLDPRVRLVVGDKNLHGMEIVMRHFLEWRVRDVKIERIRVINGQLHIDGRLRVEFNGQEKNVDLTLILDKYNGRWRNRTIELR” registered a protease stability score of 1.69. With “SEDEEWSRLIVEEFIKVLDTGDERLTSEMLDPNARIVIGDKHIHGRESLVELIHRIKNIKFDFKHVNTQGDKVEVDGTIVFNGRTTTVLIRMKKVNGRWFVTEIHIE” the figure was 1.9; with “SEDEEWVRRKVERWIRAFKTGNFEELRRNADPDTRIHINGVNFHGREDFEKFVTELMRRVKNARIDVHRLELQGEFIHSDETEDVNGVEHHVRFTYRKIDGRWSLHSIEFH”, 1.59; with “SEDEEWVSLLATLILRVLLTGDEDIWKKLADPNTIHDIGEKHFHGREEIARFWMELRIKSFHVRDMDVVGDFFHIRTHMDVSIDGKDIRTDVEIHILIINGRVKRQRFEFH”, 0.404. As to “SEDEEYAKNVDKIMRESLMTGDEDSVERMFDPHAKVIVGDKEYHGREEMVRHIKWFLEHARIRDLRMRDVRIYGDKIEIDVEVDIDVNGKRIQRKEVIYVVKVNGKWIVEYIEIK”, the protease stability score is 1.54. As to “SEDEEYIRELMKLIAQITQTGDEELFRRLVDPHTRLVQGDKQYHGWHAFRVFLEEMRIKSVRVEVRRIEIQGEYVHVDTHWQLHVHYNGRDIDLHIDVRNIVHKVNGRWIIRHIHVE”, the protease stability score came out at 0.986.

In the case of “SEDEEYLKRALELWDELVKTGDEHRSRRLFDPNARLEIGDKEYHGREEVTHMLRWLIKEIRVHSVTLKDFRSQGDKLIADTRQNREYNGKSDNVSLIMIIIKVDGRWLIESIKIE”, the protease stability score came out at 1.41.

In turn, “SEDEEYMHNVARLLMESLLTGDEKTLKELFDPNTRVDINGKDIHGREDILTDWKRREHEWRVEDIKIEHEEVQGNKAVLHGKVTGDINGVKTHIHRDVHWEVINGKLKYVKFEHR” had a protease stability score of 1.12. In the case of “SEDEEYSHFASELFLNIFETGDWKTLLHYMDPNTRLVVNGRHHHGWKFMVEFLLHARIHTTRLKDIRTVNGKVDVDGRVDGHINGQKEERVFIINITKVNGVWILESVIIE” it was 0.986; in that of “SEDEEYSRIIVKLWLEKMRTGDEDSLTKLMDPNYRLDINGKIFHGREEALLALREMVNRIDHFRDIKIHHVDIQGDKIRIDGRLEGEINGVHEIHKSSLVLVKYDGVWVIEEQKVL”, 1.91.

The sequence “SEDEEYVEHMIRLVIRSLWTGDEHLLHRLIDPHARAEVNGQEFHGREEVLDILMRIRDELGVDHIELKDFELQGDKLILYSQNNVGDKHFHIIYELTKINGRWRIHRVFIELR” displayed a protease stability score of 1.7. Turning to “SEDEEYVKELADLFKELWETGDEETFMKLVDPNVRSDVNGKRVHGREEIRRVWHEVIRTLGIKYSHLRDMRIIGNKVVLDIELRVGDKRIELKVILIIVNGRMHYVELRLNEI”, the protease stability score worked out at 1.89.

“SEDEFDARLVYKLVLDLLLTGDPDTWRKLFDPNVKINIDGVDYHGMKEFERIVKEIRVIIHDSELHDVETQGDKIIYHGIIDGTYHVNGRTIRERRTFTIIAHKVDGRWILHSISYE” had a protease stability score of 1.22. With “SEDEHAARWMTEDLERHTETGDEHRLTELIDPHAKLIFNGREYHGWEDYVKLFRELRVRRLEIKRVEVQGDKLFIDSTLRGNVNGREIDFEIHFVTHKINGRWKVHSVEII” the figure was 1.69; with “SEDEHAVRELIELESHAWRTGDEDTLRRLIDPHTRVEQGDFIFHGREEWEKFVKRLLRHMRIEDIFIHHVRVQGDKVDTDSRLLVLFEGRREHVEVDLIILKIDGRWVISQIIIK”, 1.39; with “SEDEHDARHAIELFLRSMETGDEQSIWELADPHTLSDIDGVKLHGRDLWITFLRRYSETLGVDRVIVQVERVEVQGDKVRSHIRLHINGVTLNSRVHAEKINGVWLNRKVEFG”, 1.3. “SEDEHDARLAIRLLLEALRTGDERIMEELLDPNVRFDINGKEFHGRKYVSEWLHRVDHIESRFELRDVHLFDGRIEVRGILRLHIDVNGKIDDQEKDIVLFVNKVDGRWIVHSWEIH” gave a protease stability score of 1.33. In the case of “SEDEHDSELALRIFIQEVYTGDWKRLADNMDPNVRLEINGVENHGRELAIKNLRRRLEELGVKVSDLKIDDIKVQGDKVNLDGQLNLHVNGRTIIINTEVIFRKVDGRWIIESIRYE”, the protease stability score turned out to be 1.7. With “SEDEHEALKVSEQFIRDLLTGDEDTFNRLADPNTRSEVGNKRQHGMDEVTHLWKELRIEDFTLRDQKIRIIGDKAEIDMDGEMVIIVNGKRVVQRVTLHLRVRKINGRWILHSIKLHIE” the figure was 1.3; with “SEDEHELREFVNRYLHAMKTGDEDMLRDLLDPHVRFLIDGKNYHGREWVVAIFREFGIDRVEFELKDSEVQGDKVHIDGRVHINGQERSTEFRLEKYNGKWFLREEHYH”, 1.5; with “SEDEHEMRLALEKEIKDWHTGDEDSLRELADPDVRLTVNGKRKHGWEILDVLLKHLRVRSVEIKHLRLQGDKAEMDLRMDGEVGDKRINLITHVIMYKVDGKWIIEEIVVK”, 1.43.

Regarding “SEDEHFFRLVTRWIVRALLTGDEDSLQELLDPHVKFEINGRDFHGRESVYRAVLEIRRNDLRMKREHYHVQGDFVRSELTIEEELVIGDKIVTIESRLLLIILKINGRWYLEKMEVHFK”, the protease stability score turned out to be 1.41. “SEDEHFLERFLKLFLHAYETGDEDFIKHLLDPHTRIDIHIGDKTHHLHGRDEMSKLHRKLGAKVSRHRDSNMDIQGDKATSHIHGVEYVNGREIRIDIVLIMRKVDGRWVIESMIFIFH”: the protease stability score stood at 1.25. On to “SEDEHHIERMLKLFVKAVKTGDEDTLVKLLDPHARLHIGDKDHHGWEDIYKHEHELGLDRVEMDIHRIHLQGDKINVDGTLFIDGKHIEVVIYAKKVNGRWFVETREIR”, for which the protease stability score is 1.22.

For the sequence “SEDEHHLERALKEWIKVFETGDEDKEKKMADPHMRTDINGVELHGRELMITLIVELWEKLGVDHLEFNLSRFEIVNGQVFLHMEENLFVNGQRLRFKHEIIFNKVDGRWIVEEIRIH”, the protease stability score turned out to be 1.26. In turn, “SEDEHHSREFLRVTEEILQTGDEEKREKNADPHMRFVLVYNGRETIIHGRETVVHFIHEELQRLGWDRFRVETERMSVYNGVVHIDIRIFVGDKTIHWHEHAKKVNGRWVYKSVEIRRE” yielded a protease stability score of 1.03. As to “SEDEHIADMVIKELQHILNTGDEDRLRDLMDPNTRFDINGRHIHGREDVAHWLAREVLEMRVEFHLEHWDIVDGRIHIHSNVLIIVGNKIIRIKTEILIIKIDGRWYVEELKFR”, the protease stability score turned out to be 1.36. In the case of “SEDEHKLRTMLELWLEAHRTGDEDLLRKLMDPDVRIHVGDKDFHGWDHEIELFRKELKRLGIDKIDIEVKRIDLQGDKVILEVIVHINGKEIHMIIYANKFNGRWHVKQIEIR” it was 1.35; in that of “SEDEHLADHFLRLQRKHIDTGDEDSFDRMIDPRAKFDIDGQEFHGREWSEWVKKRFDHVHIERIITRKFHVVDGRAEFHVDYDGRLNYNGVEVRVTLKQITIIEKIDGRWYVRSESIK”, 0.656. In the case of “SEDEHLAERMVHLWNKILLTGNEEIMEKLFDPNTRVIVGDKEYVGREVFLHLVKEIRKRADHIEIRIQHLEVQGDKVHLHGILIFRQGDKSDEQRVHLHSEKVNGRWFLREFRFE” it was 2.3; in that of “SEDEHLTRNLAKDTIRALETGDEDRLNELFDPDVRLEIGDFMSHGRKSFTDTLRRFKNLTLHIHDMRVIGDKVHIDGEVDWNGQRRKTEIIIVIVDGKLKQIHYNIH”, 0.874. In the case of “SEDEHMFELARHILEETDRTGDWRELEKNVDPNARLRVDGQRQHGRDSVRLLIERADHIHHRRLETFTVVNGVIHFEMHVHVIINGVPYEVEVHMHALKVDGKWIIKKVEMD” it was 0.479. For “SEDEHNAEIAIKIWLDTIRTGDWHKIENMADPNTRIDIGDKHFHGREEIVRLYIELVEKFPGMTFHVREVDVVGDKVDIHSHVVVGDKTFNLTIIITKVNGRWLLKKVRMESH”, the protease stability score is 2.67. With “SEDEHQSKLALELLQESSYTGDWKTSQDLMDPHARFVIGDKYVHGMEEVSRMMEEIRIEEIHIRKIHTVGNKIEIKGEIRIRIGDKHTSTEVEWVASKVNGRWLLEELVVH” the figure was 0.511. With “SEDEHRAEQLLRLWRETYTTGDERVMKELFDPNVRFDFNGREFIGREEAIRAFHEEVRHLGVDHVEIKEVEYRVINGQVHVHIESHFEVDGRRHRVHIESIVRKVNGKWRVEEVRIEIR” the figure was 0.969; with “SEDEHRAREVVHIFNEAIDTGDFQSLMDMMDPNVRLIFENHHTIGREEALKVINRFDHVRNHHVRWRHVHHVNGRIIDHTEVDIVIHINGQIIRETTERDITIEKVNGRWLIHQIEIR”, 1.14. “SEDEHRSHLLLKEFEHLMRTGNEEEIERNLDPHTRLEFNGREFHGREDAREVWRRFGFKHLDSLRFHHLEIQGDKIIIDSRTEMLFNGVHTITRVEFHALKIDGRWLSTELRIG”: the protease stability score was found to be 0.919. On to “SEDEHRSRHDAELFLKFVKTGDEHHLQRFADPNVQFHQGEWEDHGRESLREQFRKFMEDLGADHSELESIRVHIQGDKMTVHIHVTFRVGDKTIKSTWRFYITKINGRWTMERMDVELH”, for which the protease stability score was 0.629.

“SEDEHSFKMAIDLWEEVSRTGDEKDLRELIDPHVRVEYGDKHHVGWDRFIKVFHEIRFHHIKVRDHRIIGDKLHMNIEVHGEYNGQRVTIETHVVMRKIDGRWFTETMQID” came in with a protease stability score of 1.22.

The sequence “SEDEHSWRLAREEFRKTNETGNEEDLSRLFDPHVRIDINGREIHGRDEASELFHKLGIDHIRWRVKRVKIFDGRMENRGELILIFNGREHRYDITVISSKIDGQWSVESMHYK” displayed a protease stability score of 0.534.
